The supplement of paper PMC7877785
± gives the uncertainty stated by the source.

Experiment: self-splicing fitness, log relative to wild type (ln ratio); higher = more splicing; Tetrahymena group I intron in knt gene, E. coli kanamycin selection, DiMSum; sequences stand for … in CUCUCU…GGAGGGAAAAGUUAUCAGGCAUGCACCUGGUAGCUAGUCUUUAAACCAAUAGAUUGCAUCGGUUUAAAAGGCAAGACCGUCAAAUUGCGGGAAAGGGGUCAACAGCCGUUCAGUACCAAGUCUCAGGGGAAACUUUGAGAUGGCCUUGCAAAGGGUAUGGUAAUAAGCUGACGGACAUGGUCCUAACCACGCAGCCAAGUCCUAAGUCAACAGAUCUUCUGUUGAUAUGGAUGCAGUUCACAGACUAAAUGUCGGUCGGGGAAGAUGUAUUCUUCUCAUAAGAUAUAGUCGGACCUCUCCUUAAUGGGAGCUAGCGGAUGAAGUGAUGCAACACUGGAGCCGCUGGGAACUAAUUUGUAUGCGAAAGUAUAUUGAUUAGUUUUGGAGUACUCGUGGUCG
Summary of the method: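 Pooled colonies went to amplicon sequencing on an Illumina HiSeq 2500 after six replicate transformations. The plates were LB agar with 100 μg/mL carbenicillin, 50 μM IPTG and 0.2% rhamnose, with or without 25 μg/mL kanamycin, incubated overnight at 37°C or 30°C. The E. coli BL21(DE3) library had all eight P1ex-region intron nucleotides randomised, the intron placed in the knt kanamycin-resistance gene on pET-22b(+). DiMSum fitness is the error-weighted combination of replicate fold changes, kanamycin against none, normalised to wild type.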

| Sequence | self-splicing fitness (ln) (30 °C) | self-splicing fitness (ln) (37 °C) |
| --- | --- | --- |
| AGCGAGCAAUAUUACGGUCU | -1.42 ± 0.1 | -0.715 ± 0.15 |
| UGUGAGCAAUAUUACGUUCG | -3.41 ± 0.22 | -1.32 ± 0.15 |
| GAUAAGCAAUAUUACGGGAC | -2.82 ± 0.13 | -1.18 ± 0.1 |
| AGUCAGCAAUAUUACGGAAG | -3.36 ± 0.17 | -1.67 ± 0.16 |
| GAACAGCAAUAUUACGUCUC | -2.17 ± 0.17 | -0.443 ± 0.16 |
| GAAUAGCAAUAUUACGCGAA | -3.09 ± 0.21 | -1.96 ± 0.2 |
| GUACAGCAAUAUUACGCUAG | -1.88 ± 0.12 | -0.374 ± 0.12 |
| GCGCAGCAAUAUUACGACUU | -0.0557 ± 0.087 | 0.099 ± 0.093 |
| GGCAAGCAAUAUUACGGAGC | -1.36 ± 0.2 | 0.0393 ± 0.25 |
| GAAUAGCAAUAUUACGGGCA | -1.19 ± 0.083 | -1.2 ± 0.085 |
| CAAGAGCAAUAUUACGCAAU | -3.31 ± 0.44 | -1.52 ± 0.22 |
| UAUUAGCAAUAUUACGAGGG | -3.12 ± 0.3 | -2.13 ± 0.3 |
| AAGCAGCAAUAUUACGGCGA | -0.328 ± 0.075 | 0.355 ± 0.094 |
| UUUAAGCAAUAUUACGGCCU | -1.69 ± 0.14 | -0.999 ± 0.17 |
| GAAUAGCAAUAUUACGCGUA | -2.17 ± 0.16 | -0.973 ± 0.13 |
| CUAGAGCAAUAUUACGAGUU | -3.23 ± 0.31 | -2.36 ± 0.3 |
| CUUGAGCAAUAUUACGAGGG | -3.25 ± 0.3 | -2.37 ± 0.42 |
| AUGGAGCAAUAUUACGAACU | -1.95 ± 0.28 | -1.45 ± 0.24 |
| CGGUAGCAAUAUUACGCCCC | -1.29 ± 0.24 | -0.667 ± 0.29 |

| Sequence | self-splicing fitness (ln) (30 °C) | self-splicing fitness (ln) (37 °C) |
| --- | --- | --- |
| GACGAGCAAUAUUACGAGUA | -3.81 ± 0.39 | -3.26 ± 0.37 |
| UCCGAGCAAUAUUACGCGUU | -3.39 ± 0.12 | -1.95 ± 0.13 |
| CAUGAGCAAUAUUACGCAUG | -3.01 ± 0.2 | -1.18 ± 0.25 |
| AACAAGCAAUAUUACGGACU | -0.217 ± 0.063 | 0.775 ± 0.099 |
| CACAAGCAAUAUUACGUAGA | -1.83 ± 0.081 | -1.73 ± 0.11 |
| AUAAAGCAAUAUUACGUCUU | 0.183 ± 0.05 | 0.29 ± 0.073 |
| GCUAAGCAAUAUUACGUAAC | -1.39 ± 0.11 | -0.735 ± 0.14 |
| UCGCAGCAAUAUUACGGGGG | -2.52 ± 0.15 | -1.86 ± 0.17 |
| CACCAGCAAUAUUACGAGUA | -1.04 ± 0.06 | -0.515 ± 0.066 |
| GGUCAGCAAUAUUACGAGUA | -2.09 ± 0.18 | -1.32 ± 0.14 |
| CCGAAGCAAUAUUACGUACU | -3.91 ± 0.27 | -2.39 ± 0.19 |
| AUCCAGCAAUAUUACGUGAG | -0.052 ± 0.045 | 0.237 ± 0.073 |
| CUAUAGCAAUAUUACGACUG | 0.0686 ± 0.17 | -0.119 ± 0.17 |
| UCCUAGCAAUAUUACGCCGA | -0.215 ± 0.11 | 0.0045 ± 0.11 |
| UUUAAGCAAUAUUACGCUAU | -2.94 ± 0.27 | -0.849 ± 0.21 |
| AUAUAGCAAUAUUACGGGCC | -2.81 ± 0.3 | -2.86 ± 0.43 |
| CUGGAGCAAUAUUACGUUAC | -2.8 ± 0.23 | -1.42 ± 0.41 |
| UAAAAGCAAUAUUACGGUCC | -2.84 ± 0.17 | -2.03 ± 0.21 |
